# Measurements as given in publication doi:10.1101/2023.03.28.534355 (bioRxiv, 2023).
# B1: GBP1 D308S (enzyme)
# chain: MASEIHMTGPMCLIENTNGRLMANPEALKILSAITQPMVVVAIVGLYRTGKSYLMNKLAGKKKGFSLGSTVQSHTKGIWMWCVPHPKKPGHILVLLDTEGLGDVEKGDNQNDSWIFALAVLLSSTFVYNSIGTINQQAMDQLYYVTELTHRIRSKSSPDENENEVEDSADFVSFFPDFVWTLRDFSLDLEADGQPLTPDEYLTYSLKLKKGTSQKDETFNLPRLCIRKFFPKKKCFVFDRPVHRRKLAQLEKLQDEELDPEFVQQVADFCSYIFSNSKTKTLSGGIQVNGPRLESLVLTYVNAISSGSLPCMENAVLALAQIENSAAVQKAIAHYEQQMGQKVQLPTETLQELLDLHRDSEREAIEVFIRSSFKDVDHLFQKELAAQLEKKRDDFCKQNQEASSDRCSALLQVIFSPLEEEVKAGIYSKPGGYRLFVQKLQDLKKKYYEEPRKGIQAEEILQTYLKSKESMTDAILQTDQTLTEKEKEIEVERVKAESAQASAKMLQEMQRKNEQMMEQKERSYQEHLKQLTEKMENDRVQLLKEQERTLALKLQEQEQLLKEGFQKESRIMKNEIQDLQTKMRRRKACTIS
# Assays:
# [1] = target: GBP1 D308S/L309A/P310A (human) (UniProt P32455); assay: mass photometry
# [2] = target: human Guanylate-Binding Protein 1 (GBP1), full-length, non-farnesylated (human) (UniProt P32455); assay: mass photometry
# [3] = target: human Guanylate-Binding Protein 1 (GBP1), full-length, non-farnesylated (human) (UniProt P32455); assay: SEC-MALS
# mass photometry = target: the molecule itself; assay: mass photometry
molecule,measurement,setting,value
GBP1 D308S/L309A/P310A (from UniProt P32455 1-592) (enzyme),stoichiometry N,[1],2
"human Guanylate-Binding Protein 1 (GBP1), full-length, non-farnesylated (from UniProt P32455 1-592) (enzyme)",stoichiometry N,[2],2
same,stoichiometry N,[3],2
B1,stoichiometry N,mass photometry,2
